Test results as given in US20230270894A1 (Regeneron, published 2023).

T1: human LAG3 (lymphocyte activation gene-3 protein, CD223), expressed on cells (human, UniProt P18627 23-525)
T1 sequence: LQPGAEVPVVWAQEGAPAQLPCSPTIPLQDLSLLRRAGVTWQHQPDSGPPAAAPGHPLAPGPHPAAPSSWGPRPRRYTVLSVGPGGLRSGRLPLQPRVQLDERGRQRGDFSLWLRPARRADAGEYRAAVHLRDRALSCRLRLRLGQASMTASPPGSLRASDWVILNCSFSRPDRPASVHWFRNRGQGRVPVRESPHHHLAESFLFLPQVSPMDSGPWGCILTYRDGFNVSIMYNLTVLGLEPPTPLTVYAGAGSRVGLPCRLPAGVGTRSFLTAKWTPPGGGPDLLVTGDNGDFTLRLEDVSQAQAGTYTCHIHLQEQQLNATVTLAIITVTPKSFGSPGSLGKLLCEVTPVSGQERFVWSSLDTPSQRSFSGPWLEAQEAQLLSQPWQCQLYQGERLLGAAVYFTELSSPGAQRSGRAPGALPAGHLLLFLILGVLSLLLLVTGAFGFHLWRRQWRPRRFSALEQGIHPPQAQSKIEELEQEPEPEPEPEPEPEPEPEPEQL

B1: 89Zr-DFO-mAb1 (anti-LAG3 antibody H4sH15482P conjugated with p-SCN-Bn-DFO and radiolabeled with 89Zr) (antibody, V domains shown)
VH: QVQLVESGGGVVQPGRSLRLSCVASGFTFSSYGMHWVRQAPGKGLEWVAIIWYDGSNKYYADSVKGRFTISRDNSKNTQYLQMNSLRAEDTAVYYCASVATSGDFDYYGMDVWGQGTTVTVSS
VL: EIVLTQSPATLSLSPGERTTLSCRASQRISTYLAWYQQKPGQAPRLLIYDASKRATGIPARFSGSGSGTGFTLTISSLEPEDFAVYYCQQRSNWPLTFGGGTKVEIK

Columns and labels:
[1] = target: human LAG3 (lymphocyte activation gene-3 protein, CD223), expressed on cells (human) (UniProt P18627); experiment: cell-based or functional assay
[2] = target: T1, human LAG3 (lymphocyte activation …); experiment: cell-based or functional assay

| ex vivo biodistribution, tumor uptake (AVERAGE % ID/G) in MC38/ova/LAG3 tumors of NCr nude mice, 6 days post-dosing [1] [% ID/g] | Tumor-to-blood ratio (average), Raji/hPBMC tumors, day 6, protein dose 0.03 mg/kg [2] [ratio] | Tumor-to-blood ratio (average), Raji/hPBMC tumors, day 6, protein dose 0.1 mg/kg [2] [ratio] | Tumor-to-blood ratio (average), Raji/hPBMC tumors, day 6, protein dose 0.3 mg/kg [2] [ratio] | Tumor-to-blood ratio (average), Raji/hPBMC tumors, day 6, protein dose 5 mg/kg [2] [ratio] | Molecule |
| --- | --- | --- | --- | --- | --- |
| 7.8 |  |  |  |  | 89Zr-DFO-conjugated isotype control antibody |
|  | 9.71 | 5.44 | 3.46 | 1.1 | B1 |
